Results from the supplement of paper PMC6757056.
± gives the standard deviation of the averaged measurements.

B1: library; a variant is named by its letters at N, in order (parent)
chain: GCUGUCACCGAGAAACUGUGAAGUAUAUCUUAAACCUGGGCACUUAAAAGAUAUAUGGAGUUAGUAGUGCAACCUGCUCGGUCUGAUGAGUCCNNNNNNGGACGAAACAGC

Experiments:
cyclic di-GMP [1] = variants of: B1; assay: FACS-Seq fitted mean relative fluorescence mCherry/BFP without ligand (log10 relative fluorescence); HEK293T; ligand: cyclic di-GMP (c-di-GMP-II aptamer); higher = higher reporter protein expression; conditions: ligand present: no
Procedure, shortened: (§1)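 Fluorescence figures are normalized fitted normal means of sequenced bin counts. Enriched, lentivirally transduced HEK293T libraries with a ribozyme-switch mCherry reporter and EF1α-BFP were held 48 h with or without ligand, then sorted into 6 mCherry/BFP bins. PCR-amplified, barcoded genomic DNA from each bin was sequenced on MiSeq. Means of log10(mCherry/BFP) were scaled to five spiked-in control ribozymes.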

cyclic di-GMP [2] = variants of: B1; assay: normalized RNA/DNA level without ligand (relative to sTRSVctl = 100) (log10 (% of sTRSVctl)); HEK293T; ligand: cyclic di-GMP (c-di-GMP-II aptamer); higher = less ribozyme self-cleavage, higher mRNA level; conditions: reporter: mCherry (pCS4076), ligand present: no
Procedure, shortened: (§2)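 HEK293T cells were transfected with library plasmids carrying ribozyme switches linked to an mCherry reporter, or an eGFP reporter in some ligand experiments, at 4 µg per well of a 6-well plate, with any ligand added 1 h beforehand. After 72 h, total RNA was extracted with EDTA, reverse-transcribed, amplified, barcoded and sequenced. RNA level was defined as RNA reads over DNA reads, normalized to a spiked-in non-cleaving sequence or to the top-ranked sequences. That value was multiplied by 100 and converted to log10, the top set was 25 sequences, and only sequences with ≥100 DNA reads were retained.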

cyclic di-GMP [3] = variants of: B1; assay: FACS-Seq fitted mean relative fluorescence mCherry/BFP with ligand (log10 relative fluorescence); HEK293T; ligand: cyclic di-GMP (c-di-GMP-II aptamer); ligand concentration (+) FACS-Seq: 1 mM; higher = higher reporter protein expression; conditions: ligand present: yes
Procedure, shortened: as §1

cyclic di-GMP [4] = variants of: B1; assay: normalized RNA/DNA level with ligand (relative to sTRSVctl = 100) (log10 (% of sTRSVctl)); HEK293T; ligand: cyclic di-GMP (c-di-GMP-II aptamer); ligand concentration (+) RNA-Seq: 1 mM; higher = less ribozyme self-cleavage, higher mRNA level; conditions: reporter: mCherry (pCS4076), ligand present: yes
Procedure, shortened: as §2

Variant | FACS-Seq fitted mean (log10) (cyclic di-GMP [1]) | normalized RNA/DNA level without ligand (log10) (cyclic di-GMP [2]) | FACS-Seq fitted mean (log10) (cyclic di-GMP [3]) | normalized RNA/DNA level with ligand (log10) (cyclic di-GMP [4])
CGUUCA | -0.111 ± 0.098 | 1.39 ± 0.12 | 0.115 ± 0.005 | 1.59 ± 0.12
CGUUCC | -0.821 ± 0.086 | 1.735 ± 0.0027 | -0.407 ± 0.1 | 1.87 ± 0.13
CGGUAU | -0.696 ± 0.0075 | 1.35 ± 0.14 | -0.413 ± 0.0071 | 1.51 ± 0.14
CGGUAA | -0.662 ± 0.021 | 1.19 ± 0.052 | -0.41 ± 0.069 | 1.28 ± 0.087
CGGUAC | -0.413 ± 0.026 | 1.53 ± 0.13 | -0.0971 ± 0.017 | 1.72 ± 0.086
UGUACU | -0.0524 ± 0.051 | 1.76 ± 0.05 | 0.296 ± 0.04 | 1.87 ± 0.094
UGUACC | 0.263 ± 0.21 | 1.79 ± 0.068 | 0.4414 ± 0.00076 | 1.9 ± 0.13
UGUGAC | 0.123 ± 0.24 | 1.644 ± 0.015 | 0.27 ± 0.01 | 1.79 ± 0.082
UGUGAU | -0.736 ± 0.12 | 1.676 ± 0.012 | -0.5759 ± 0.0014 | 1.81 ± 0.13
CGGUGU | -0.862 ± 0.11 | 1.68 ± 0.02 | -0.65 ± 0.12 | 1.88 ± 0.14
CGGUGA | -0.266 ± 0.011 | 1.4 ± 0.13 | 0.0909 ± 0.043 | 1.64 ± 0.12
UGGGAA | -0.259 ± 0.11 | 1.57 ± 0.12 | -0.113 ± 0.048 | 1.77 ± 0.089
CGUAUA | -0.76 ± 0.11 | 1.3 ± 0.1 | -0.4664 ± 0.0033 | 1.45 ± 0.13
AGGUCA | -0.483 ± 0.071 | 1.649 ± 0.0037 | -0.219 ± 0.037 | 1.77 ± 0.14
UGGUGA | -0.506 ± 0.1 | 1.57 ± 0.12 | -0.257 ± 0.04 | 1.75 ± 0.1
CGGGUA | -0.076 ± 0.13 | 1.67 ± 0.023 | 0.207 ± 0.099 | 1.75 ± 0.081
CGGGUC | -0.589 ± 0.12 | 1.81 ± 0.032 | -0.527 ± 0.034 | 1.9 ± 0.057
CGGGUG | -0.608 ± 0.14 | 1.62 ± 0.026 | -0.7531 ± 0.0033 | 1.82 ± 0.12
UGUCCU | -0.0961 ± 0.059 | 1.7541 ± 0.0017 | 0.158 ± 0.027 | 1.89 ± 0.1
AGGUGA | -0.464 ± 0.029 | 1.52 ± 0.1 | -0.245 ± 0.0095 | 1.6 ± 0.083
AGGUAA | -0.299 ± 0.023 | 1.43 ± 0.034 | -0.0992 ± 0.054 | 1.56 ± 0.17
AGGUAU | -0.276 ± 0.0093 | 1.57 ± 0.046 | 0.0998 ± 0.21 | 1.76 ± 0.066
AGUAGA | -0.549 ± 0.05 | 1.36 ± 0.12 | -0.22 ± 0.075 | 1.56 ± 0.086
AGUAGG | -1.02 ± 0.098 | 1.63 ± 0.097 | -0.997 ± 0.068 | 1.75 ± 0.049

Variant | FACS-Seq fitted mean (log10) (cyclic di-GMP [1]) | normalized RNA/DNA level without ligand (log10) (cyclic di-GMP [2]) | FACS-Seq fitted mean (log10) (cyclic di-GMP [3]) | normalized RNA/DNA level with ligand (log10) (cyclic di-GMP [4])
AGUAGU | 0.132 ± 0.03 | 1.64 ± 0.066 | 0.367 ± 0.029 | 1.78 ± 0.13
AGGCUU | 0.2 ± 0.22 | 1.655 ± 0.015 | 0.371 ± 0.029 | 1.85 ± 0.1
GGGGGC | -0.722 ± 0.011 | 1.77 ± 0.043 | -0.503 ± 0.012 | 1.87 ± 0.12
AGUGCC | 0.324 ± 0.079 | 1.82 ± 0.11 | 0.275 ± 0.078 | 1.92 ± 0.15
AGUGCA | -0.382 ± 0.034 | 1.61 ± 0.046 | -0.043 ± 0.018 | 1.79 ± 0.096
CGUACU | -0.584 ± 0.039 | 1.43 ± 0.087 | -0.327 ± 0.022 | 1.66 ± 0.12
CGUACA | -0.654 ± 0.072 | 1.32 ± 0.032 | -0.354 ± 0.046 | 1.53 ± 0.12
CGUUAA | -0.684 ± 0.057 | 1.22 ± 0.036 | -0.425 ± 0.019 | 1.4 ± 0.14
CGUUAU | -0.444 ± 0.047 | 1.42 ± 0.13 | -0.148 ± 0.06 | 1.61 ± 0.081
UGUAGU | 0.04 ± 0.16 | 1.66 ± 0.051 | 0.343 ± 0.011 | 1.86 ± 0.12
CGGGAG | -0.586 ± 0.063 | 1.68 ± 0.017 | -0.113 ± 0.0022 | 1.79 ± 0.064
CGGGAA | -0.636 ± 0.012 | 1.33 ± 0.033 | -0.472 ± 0.015 | 1.36 ± 0.081
CGUGAU | -0.47 ± 0.026 | 1.45 ± 0.057 | -0.173 ± 0.018 | 1.69 ± 0.07
CGUGAC | -0.217 ± 0.012 | 1.58 ± 0.081 | 0.0888 ± 0.11 | 1.74 ± 0.092
CGUGAA | -0.546 ± 0.02 | 1.24 ± 0.057 | -0.396 ± 0.0075 | 1.35 ± 0.099
CGUGCG | -0.833 ± 0.015 | 1.8 ± 0.02 | -0.561 ± 0.012 | 1.83 ± 0.11
CGUGCA | -0.119 ± 0.16 | 1.68 ± 0.078 | 0.0822 ± 0.039 | 1.79 ± 0.1
CGUCGA | -0.179 ± 0.073 | 1.58 ± 0.049 | 0.0661 ± 0.0086 | 1.77 ± 0.093
AGGGAG | -0.66 ± 0.02 | 1.6 ± 0.05 | -0.378 ± 0.013 | 1.73 ± 0.084
CGUGGA | -0.426 ± 0.029 | 1.41 ± 0.1 | -0.0424 ± 0.071 | 1.62 ± 0.035
AGUAAC | -0.0857 ± 0.11 | 1.595 ± 0.012 | 0.271 ± 0.023 | 1.79 ± 0.076
AGUAAG | -0.172 ± 0.14 | 1.53 ± 0.11 | 0.221 ± 0.032 | 1.7 ± 0.062
AGUAAU | 0.353 ± 0.055 | 1.7 ± 0.006 | 0.4462 ± 0.0042 | 1.83 ± 0.097
AGUAAA | -0.319 ± 0.071 | 1.41 ± 0.038 | 0.121 ± 0.012 | 1.62 ± 0.1

Variant | FACS-Seq fitted mean (log10) (cyclic di-GMP [1]) | normalized RNA/DNA level without ligand (log10) (cyclic di-GMP [2]) | FACS-Seq fitted mean (log10) (cyclic di-GMP [3]) | normalized RNA/DNA level with ligand (log10) (cyclic di-GMP [4])
CGUCUU | -0.365 ± 0.028 | 1.49 ± 0.033 | -0.103 ± 0.064 | 1.66 ± 0.12
CGUCUC | 0.2 ± 0.16 | 1.766 ± 0.015 | 0.3267 ± 0.0019 | 1.87 ± 0.11
CGUCUA | -0.152 ± 0.067 | 1.26 ± 0.082 | 0.127 ± 0.011 | 1.45 ± 0.1
AGUGGG | -0.534 ± 0.12 | 1.69 ± 0.069 | -0.365 ± 0.059 | 1.8 ± 0.062
AGUGUC | -0.2695 ± 0.0013 | 1.62 ± 0.071 | 0.0884 ± 0.21 | 1.76 ± 0.052
AGUGAA | -0.389 ± 0.095 | 1.36 ± 0.097 | 0.0166 ± 0.093 | 1.54 ± 0.096
AGUGAC | -0.339 ± 0.017 | 1.63 ± 0.038 | -0.00165 ± 0.05 | 1.77 ± 0.13
GGUAUC | -0.466 ± 0.023 | 1.63 ± 0.018 | -0.193 ± 0.022 | 1.79 ± 0.12
CGUCAA | -0.556 ± 0.083 | 1.31 ± 0.093 | -0.352 ± 0.01 | 1.49 ± 0.13
UGGUCG | -0.511 ± 0.12 | 1.77 ± 0.034 | -0.326 ± 0.0047 | 1.89 ± 0.045
CGGGGA | -0.489 ± 0.015 | 1.54 ± 0.11 | -0.28 ± 0.044 | 1.64 ± 0.093
CGGGGC | -0.104 ± 0.11 | 1.73 ± 0.055 | 0.215 ± 0.046 | 1.84 ± 0.14
CGGUCC | -0.137 ± 0.077 | 1.8527 ± 0.0016 | 0.251 ± 0.017 | 1.96 ± 0.069
CGGUCA | -0.42 ± 0.019 | 1.45 ± 0.045 | -0.182 ± 0.032 | 1.59 ± 0.18
CGUAAU | -0.374 ± 0.0044 | 1.36 ± 0.17 | -0.0343 ± 0.11 | 1.53 ± 0.093
CGUAAA | -0.605 ± 0.042 | 1.23 ± 0.081 | -0.386 ± 0.039 | 1.34 ± 0.11
UGUAAA | 0.0683 ± 0.13 | 1.72 ± 0.019 | 0.3702 ± 0.0013 | 1.85 ± 0.086
UGUGGG | -0.327 ± 0.023 | 1.74 ± 0.03 | -0.0766 ± 0.022 | 1.86 ± 0.12
CGGUUA | -0.67 ± 0.04 | 1.27 ± 0.12 | -0.411 ± 0.028 | 1.43 ± 0.091
UGUAUA | -0.0844 ± 0.055 | 1.73 ± 0.083 | 0.221 ± 0.027 | 1.87 ± 0.073
CGGCUU | -0.717 ± 0.062 | 1.5 ± 0.099 | -0.63 ± 0.15 | 1.67 ± 0.062
AGUUAG | -0.315 ± 0.053 | 1.54 ± 0.059 | -0.0278 ± 0.059 | 1.75 ± 0.11
GGGGAC | 0.068 ± 0.1 | 1.65 ± 0.027 | 0.307 ± 0.041 | 1.8 ± 0.17
CGUCCU | -0.313 ± 0.09 | 1.6 ± 0.033 | 0.0379 ± 0.021 | 1.78 ± 0.12
